Laboratory results as given in PMC7615117, “DNSN-1 recruits GINS for CMG helicase assembly during DNA replication initiation in C. elegans” (Science (New York, N.Y.), 2023).

T1: MCM-4 (C. elegans, UniProt Q95XQ8 1-823)
T1 construct: MCM-4, C. elegans; Subunit of m11, written alone for its interfaces in the structure; source: S. cerevisiae, purified as part of recombinant CMG
T1 sequence: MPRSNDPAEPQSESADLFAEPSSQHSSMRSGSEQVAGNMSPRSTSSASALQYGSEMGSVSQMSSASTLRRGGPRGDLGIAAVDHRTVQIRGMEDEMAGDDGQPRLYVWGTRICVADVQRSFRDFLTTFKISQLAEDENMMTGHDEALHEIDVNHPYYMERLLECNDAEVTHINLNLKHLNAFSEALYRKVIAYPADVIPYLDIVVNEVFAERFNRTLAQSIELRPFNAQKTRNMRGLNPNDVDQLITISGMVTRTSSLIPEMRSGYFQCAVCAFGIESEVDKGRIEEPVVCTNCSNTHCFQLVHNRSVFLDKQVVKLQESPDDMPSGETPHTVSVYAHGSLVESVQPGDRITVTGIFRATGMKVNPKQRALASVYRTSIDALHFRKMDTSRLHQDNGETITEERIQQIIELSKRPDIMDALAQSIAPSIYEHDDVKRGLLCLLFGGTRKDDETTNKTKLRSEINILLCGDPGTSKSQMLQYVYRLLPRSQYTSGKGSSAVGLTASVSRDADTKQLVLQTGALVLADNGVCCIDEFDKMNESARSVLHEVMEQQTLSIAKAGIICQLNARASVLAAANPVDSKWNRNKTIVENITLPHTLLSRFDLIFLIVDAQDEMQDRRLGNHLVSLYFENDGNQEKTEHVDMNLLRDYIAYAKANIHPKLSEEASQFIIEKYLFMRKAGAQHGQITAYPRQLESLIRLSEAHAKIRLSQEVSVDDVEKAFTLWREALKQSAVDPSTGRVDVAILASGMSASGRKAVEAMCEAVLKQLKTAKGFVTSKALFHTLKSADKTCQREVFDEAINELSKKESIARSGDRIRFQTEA

T2: TIM-1 (C. elegans, UniProt G5EDN3 1-1353)
T2 construct: TIM-1, C. elegans; Chain of m13, written alone for its contacts in the structure; source: S. cerevisiae, purified as part of the TIM-1_TIPN-1 complex
T2 sequence: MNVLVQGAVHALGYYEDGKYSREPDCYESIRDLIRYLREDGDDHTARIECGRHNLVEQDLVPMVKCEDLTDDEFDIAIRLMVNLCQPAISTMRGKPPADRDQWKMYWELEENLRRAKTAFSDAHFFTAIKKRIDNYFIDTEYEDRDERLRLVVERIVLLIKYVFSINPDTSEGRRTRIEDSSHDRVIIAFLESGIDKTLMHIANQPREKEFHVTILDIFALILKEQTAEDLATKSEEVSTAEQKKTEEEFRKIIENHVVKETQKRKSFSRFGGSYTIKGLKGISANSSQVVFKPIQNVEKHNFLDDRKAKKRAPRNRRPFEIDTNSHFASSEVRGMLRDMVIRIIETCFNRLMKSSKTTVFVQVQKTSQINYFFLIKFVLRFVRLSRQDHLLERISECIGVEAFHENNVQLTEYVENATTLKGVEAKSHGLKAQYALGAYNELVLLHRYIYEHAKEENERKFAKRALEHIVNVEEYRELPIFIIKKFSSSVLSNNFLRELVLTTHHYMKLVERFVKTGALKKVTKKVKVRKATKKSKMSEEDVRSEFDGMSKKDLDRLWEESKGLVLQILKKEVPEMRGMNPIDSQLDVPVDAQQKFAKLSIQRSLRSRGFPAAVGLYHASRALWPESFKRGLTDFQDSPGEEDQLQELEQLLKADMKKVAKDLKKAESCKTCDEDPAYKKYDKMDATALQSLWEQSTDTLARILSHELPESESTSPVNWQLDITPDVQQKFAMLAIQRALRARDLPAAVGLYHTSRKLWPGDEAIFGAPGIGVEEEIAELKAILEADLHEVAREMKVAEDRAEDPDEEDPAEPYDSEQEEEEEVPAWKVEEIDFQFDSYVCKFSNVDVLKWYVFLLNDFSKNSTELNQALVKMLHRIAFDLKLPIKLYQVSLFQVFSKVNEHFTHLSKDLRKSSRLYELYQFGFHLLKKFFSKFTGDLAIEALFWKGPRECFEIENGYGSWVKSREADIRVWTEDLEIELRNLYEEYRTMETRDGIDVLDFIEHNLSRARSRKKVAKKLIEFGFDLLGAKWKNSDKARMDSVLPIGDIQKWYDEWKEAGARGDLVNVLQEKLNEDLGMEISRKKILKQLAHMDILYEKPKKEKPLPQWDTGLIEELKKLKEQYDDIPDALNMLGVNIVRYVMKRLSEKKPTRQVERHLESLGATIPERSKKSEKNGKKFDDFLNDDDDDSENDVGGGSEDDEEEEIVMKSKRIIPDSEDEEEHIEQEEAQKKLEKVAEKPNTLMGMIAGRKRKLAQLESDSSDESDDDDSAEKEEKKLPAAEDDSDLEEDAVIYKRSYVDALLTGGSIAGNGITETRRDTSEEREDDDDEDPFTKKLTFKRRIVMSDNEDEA

T3: MCM-3 (C. elegans, UniProt Q9XVR7 1-812)
T3 construct: MCM-3, C. elegans; Subunit of m11, written alone for its contacts in the structure; also called MCM-3 subunit of MCM-2-7; source: S. cerevisiae, purified as part of recombinant CMG
T3 sequence: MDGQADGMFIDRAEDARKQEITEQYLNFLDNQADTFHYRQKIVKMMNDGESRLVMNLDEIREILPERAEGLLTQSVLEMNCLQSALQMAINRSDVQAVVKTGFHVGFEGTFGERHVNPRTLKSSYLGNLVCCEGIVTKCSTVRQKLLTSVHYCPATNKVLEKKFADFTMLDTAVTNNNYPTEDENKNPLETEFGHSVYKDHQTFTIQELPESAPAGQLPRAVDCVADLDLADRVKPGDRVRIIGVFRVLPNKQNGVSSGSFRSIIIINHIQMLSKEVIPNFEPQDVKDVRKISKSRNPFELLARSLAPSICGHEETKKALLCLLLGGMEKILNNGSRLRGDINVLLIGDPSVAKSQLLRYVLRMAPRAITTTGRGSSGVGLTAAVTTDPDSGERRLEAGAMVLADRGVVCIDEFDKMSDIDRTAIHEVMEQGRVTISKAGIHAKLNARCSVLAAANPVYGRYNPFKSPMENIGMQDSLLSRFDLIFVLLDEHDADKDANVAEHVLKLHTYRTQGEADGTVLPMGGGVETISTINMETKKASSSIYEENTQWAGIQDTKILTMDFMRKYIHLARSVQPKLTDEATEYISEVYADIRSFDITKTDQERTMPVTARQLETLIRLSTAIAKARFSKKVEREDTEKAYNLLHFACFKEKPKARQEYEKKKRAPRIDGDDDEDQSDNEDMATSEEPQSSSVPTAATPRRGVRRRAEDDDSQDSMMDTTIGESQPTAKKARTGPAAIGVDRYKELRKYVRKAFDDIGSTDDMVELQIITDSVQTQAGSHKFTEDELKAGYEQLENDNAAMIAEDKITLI

B1: MCM-6 (natural protein, C. elegans)
chain: MDNIIGGQAQQVEDTDGTRVQNEFSKFLKSFKDQKNEFIYKSAMKELVQPEKNTIFINMQHLYKFSNNLATTIELQYYRVYPFMCEALHLATLDACDESERQQMFKKQLYVSLFNLDAKTKVRELSADKVGGLVRIAGQIVRTHPVHPELSRACFVCEDCGVTTRDVQQQFRYTQPTKCANPQCMNRTRFSLDVNSSTFVDFQKIRIQETQAELPRGSIPRTVDVIVRGEMVETVQPGDKCDIVGTLIVIPDIAQLSTPGLRAETSNQNRGRATDKSEGITGLKALGVRDLTYKMAFLACHIQQTESLVGGDASGAVEETDYLDLWSKMSTEDRATLKKMSDDKKIEKNIVDSLFPNIYGNHEVKLGVLLMLLGGVAKKSRDEGTSLRGDINVCLVGDPSTAKSQVLKAVEEFSPRAIYTSGKASSAAGLTAAVVKDEESFEFVIEAGALMLADNGVCCIDEFDKMDLKDQVAIHEAMEQQTISITKAGVKATLNARASILAAANPVNGRYDRSRPLKYNVQMSAPIMSRFDLFFVLVDECNEVTDYAIARRILDNHRAISEHTERDSVYKIDDIKKYIAFARCFKPKISDKAAETLVREYKKLRMSDSNNAATSSWRITVRQLESLVRLSEALARLHCGKEVLVEHVEKAAELLNKSIVRVEQPDIALDDDDFDNNIMVVEADKENQRGDDSMDHDGEKENAPKIDIAKLKISFKEYKQLSDVLVLHMRSDEDNQGEDEYDGVKQSALVEWYLSTIEADLETEEDFNVQKTICERVIHRLIHQDHVLLEVEQGEDPTLCVHPNYVIADE
notes: MCM-6, C. elegans; Subunit of m11, written alone for its interface in the structure; source: S. cerevisiae, purified as part of recombinant CMG
B2: MCM-2 (natural protein, C. elegans)
chain: MADRANNDDDVDRQPLPIADDADDDVDGIDEMFNNEDEDPEDEEGENLFGDDMERDYREQPELDQYSESGMDDASDVGSLSVSARRAAEREMAQRDQLLDDDALMYEDGDSEEVDTRRRGRGRRGRGDAADDDSVPMEEEDIPVDILENIRGRTIRDHVSDEAVAKEIERRFKNFLRSFHEPGNKQTKYIQMIKSMAADNRESLEVSFTDLSDDNGEQNISYFLPEAPNEMLAIMDRAATEVVMNMYPFYSRVCNEIKVRISQLPVEEDIRMLRQVHLNMLIRTAGVVTIASGILPQLAVVKYDCVACGYLLGPFVQQNDEEVRPTICPSCQGKGPFELNVENTVYHNYQRITMQESPNKVAAGRLPRSKDVILLGDLCDSCKPGDEIEVTGVYTNNFDGSLNYKQGFPVFNTLIHANHITNKDKMASDQLTDEDIKAIRELSQDPNISQRVFSSIAPSIYGHDDVKRAIALALFRGEAKNPGAKHRLRGDINVLLCGDPGTAKSQFLRYAAHIAPRSVLTTGQGASAVGLTAYVQRHPVTREWTLEAGAMVLADKGVCLIDEFDKMSDQDRTSIHEAMEQQSISISKAGIVTSLHARCTVIAASNPIGGRYNPTRTFAENVDLTEPILSRFDVLCVIRDSVDSVEDERLAKFVVGNHRTHHPDAKKIVKEGDELEEDQMDERTGVRLIPQDLLRKYIIYAREKCHPTLPEQHSEKFSNIFAQMRKESMATGSVAITVRHVESMIRLSEAHAKLHLRSYVNDEDCAAAIRVMLESFVNTQKASIMRMMKKTFSRHLTENRSANELLLFILKQLIRQQMHYATARAAAGTILQSVTIPESEFIEKAQQLRIENVKPFYTSEIFASNNFLYDPSKKTIVQEIF
notes: MCM-2, C. elegans; Subunit of m11, written alone for its contacts in the structure; source: S. cerevisiae, purified as part of recombinant CMG
B3: MCM-5 (natural protein, C. elegans)
chain: MSNLDNPGIYYQERFFANDGVPDTGRELIAEYRQLITQFRNFIRDFSTGGFGMIYRDQLKRNYFSHEYRLEINLNHLKNFDEDIEMKLRKFPGKVLPALEEAAKIVADEITTPRPKGEEKLHDIQVTLTLDEYPTSLRQVKSAQVSQVVKISGIIVAAAQVRSKATKVTLQCRQCKHTIPDVSIKPGLEGFALPRTCAAPQQGQMQRCPIDPYIMLPDKCECVDYQTLKLQENPEDVPHGEMPRHLQLFTERYLTDKVVPGNRVTIVGVYSIKKLIQKKGGDKSLQGIRTPYLRVLGIHMETSGPGRTNFTTFTPEEERMFKTLAQRKDAYELIAKSIAPSIYGSADIKKSIACLLFGGARKKLPDGITRRGDINVLLLGDPGTAKSQLLKFVEQVSPIGVYTSGKGSSAAGLTASVIRDPQSRSFIMEGGAMVLADGGVVCIDEFDKMREDDRVAIHEAMEQQTISIAKAGITTTLNSRCSVLAAANSVYGRWDESRGDDNIDFMPTILSRFDMIYIVKDTHDVLKDATLAKHVIEVHVNASAAKERDIAGVPKTATTDSDGVMTMFDTDGFLTIEFLKKFVTYARLNCGPRLTPQASEKLVNHYVKMRNPVVNADAFKSGKKAHNSAIPITVRQLEAIVRIAESIAKMELQQFATDKHVEEALRLFRVSTIEAAATGNLAGVEGFTSTADQEALNRIEVQMKKRFAIGTHVSEHLIVQDFVARQHYRESLVKKVIDNLVRRGDLQQKMQRKMLYRVR
notes: MCM-5, C. elegans; Subunit of m11, written alone for its interface in the structure; source: S. cerevisiae, purified as part of recombinant CMG
B4: TIPN-1 (natural protein, C. elegans)
chain: MDEMEDFFENDELDREPSPMGDEAIEDNSGEGGTRRVVEPKLLRTKRLANPRLALNERILTGPKGISALRETLKDFKPNPKDDPYANLEKLMKKYAYWGHLMFPKMKTEDVLNRVETLGTRRQVKVFMIKHRLGETGEDSEHEEQENQKNGIIDDGASDNDDDLFKDLPEKEVTTEKAKNSEKSDQKTAEIDENVEEEYRMMEEERLREEQEAKEAADEDALMEDFGDMNNDW
notes: TIPN-1, C. elegans; Chain of m13, written alone; source: S. cerevisiae, purified as part of the TIM-1_TIPN-1 complex

How the values were obtained:
Experiment in all cases: cryo-EM structure; CMG (125 nM) with fork DNA, AMP-PNP, TIM-1/TIPN-1 and DNSN-1 isoform c (each 1.3-fold molar excess), GraFix gradient with glutaraldehyde and BS3
Conditions in all cases: both partners purified
MCM-4 = molecular target: T1, MCM-4
TIM-1 = molecular target: T2, TIM-1
MCM-3 = molecular target: T3, MCM-3

binding result (TIM-1) | other results | Binder
 | binding result (MCM-4): binds | B1
binds |  | B2
 | binding result (MCM-3): binds | B3
binds |  | B4
